# Assay results: patent publication US20140227287A1
# Target: human βNGF (R&D Systems, Inc.) (human) (UniProt P01138)
# Assay: dynamic light scattering of antibody incubated with human βNGF
# human βNGF (R&D Systems, Inc.) (human), sequence (P01138 122-241 limits assumed): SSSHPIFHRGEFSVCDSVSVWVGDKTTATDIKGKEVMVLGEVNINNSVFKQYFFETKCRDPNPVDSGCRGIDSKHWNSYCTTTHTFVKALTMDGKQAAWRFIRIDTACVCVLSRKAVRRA
substance,measurement,value
Control IgG (antibody),"Particle size Average (d · nm), IgG + rhNGF",12.6 nm·days
same,"Particle size Peak (d · nm), IgG + rhNGF",11.7 nm·days
